The Immune Epitope Database (IEDB)
Blank lines part the entries; values can stand above or below the sequence they belong to.

Tests used:
[1] = target: HLA-B*58:01; assay: IEDB peptide-MHC binding, purified MHC/competitive/radioactivity; filed as Kd, often an IC50 or EC50 that approximates it; ≥ and ≤ were set here for values at or beyond the usual limits of such assays
[2] = target: HLA-B*57:01; assay: as above
[3] = target: HLA-A*29:02; assay: IEDB peptide-MHC binding, purified MHC/direct/fluorescence; filed as Kd, often an IC50 or EC50 that approximates it; ≥ and ≤ were set here for values at or beyond the usual limits of such assays
[4] = target: HLA-A*01:01; assay: as above
[5] = target: HLA-A*03:01; assay: IEDB peptide-MHC binding, purified MHC/competitive/fluorescence; filed as Kd, often an IC50 or EC50 that approximates it; ≥ and ≤ were set here for values at or beyond the usual limits of such assays
[6] = target: HLA-A*29:02; assay: as above
[7] = target: HLA-B*15:03; assay: IEDB peptide-MHC binding, purified MHC/competitive/radioactivity; filed as Kd, often an IC50 or EC50 that approximates it; ≥ and ≤ were set here for values at or beyond the usual limits of such assays; conditions: source organism: Vaccinia virus WR
[8] = target: HLA-A*24:02; assay: as above; conditions: source organism: Dengue virus 1 Singapore/S275/1990
[9] = target: HLA-A*32:01; assay: as above
[10] = target: HLA-B*15:01; assay: as above
[11] = target: HLA-B*35:01; assay: IEDB peptide-MHC binding, purified MHC/competitive/fluorescence; filed as Kd, often an IC50 or EC50 that approximates it; ≥ and ≤ were set here for values at or beyond the usual limits of such assays
[12] = target: HLA-B*15:01; assay: as above
[13] = target: HLA-A*26:01; assay: as above; conditions: source organism: Salmonella enterica subsp. enterica serovar Typhi
[14] = target: HLA-B*08:01; assay: IEDB peptide-MHC binding, purified MHC/competitive/radioactivity; filed as Kd, often an IC50 or EC50 that approximates it; ≥ and ≤ were set here for values at or beyond the usual limits of such assays; conditions: source organism: Vaccinia virus WR
[15] = target: HLA-A*30:01; assay: as above; conditions: source organism: Vaccinia virus WR
[16] = target: HLA-B*39:01; assay: IEDB peptide-MHC binding, purified MHC/direct/fluorescence; filed as Kd, often an IC50 or EC50 that approximates it; ≥ and ≤ were set here for values at or beyond the usual limits of such assays
[17] = target: HLA-A*68:02; assay: IEDB peptide-MHC binding, purified MHC/competitive/fluorescence; filed as Kd, often an IC50 or EC50 that approximates it; ≥ and ≤ were set here for values at or beyond the usual limits of such assays
[18] = target: HLA-B*07:02; assay: IEDB peptide-MHC binding, purified MHC/direct/fluorescence; filed as Kd, often an IC50 or EC50 that approximates it; ≥ and ≤ were set here for values at or beyond the usual limits of such assays; conditions: source organism: Mycobacterium tuberculosis variant bovis
[19] = target: HLA-A*31:01; assay: as above; conditions: source organism: Mycobacterium tuberculosis variant bovis
[20] = target: HLA-B*58:01; assay: as above; conditions: source organism: Mycobacterium tuberculosis variant bovis
[21] = target: HLA-A*03:01; assay: as above; conditions: source organism: Mycobacterium tuberculosis variant bovis
[22] = target: HLA-B*57:01; assay: as above; conditions: source organism: Mycobacterium tuberculosis variant bovis
[23] = target: HLA-B*46:01; assay: as above; conditions: source organism: Mycobacterium tuberculosis variant bovis
[24] = target: HLA-A*69:01; assay: as above; conditions: source organism: Mycobacterium tuberculosis variant bovis
[25] = target: HLA-B*27:05; assay: as above; conditions: source organism: Mycobacterium tuberculosis variant bovis
[26] = target: HLA-B*44:02; assay: as above; conditions: source organism: Mycobacterium tuberculosis variant bovis
[27] = source organism: Dengue virus 2 Jamaica/1409/1983
[28] = source organism: Mycobacterium tuberculosis variant bovis
[29] = source organism: Bacillus anthracis str. A0488
[30] = source organism: Cryptosporidium parvum Iowa II
[31] = source organism: Dengue virus 1 Singapore/S275/1990
[32] = source organism: Dengue virus 4 Philippines/H241/1956
[33] = source organism: Dengue virus 1 Brazil/97-11/1997
[34] = source organism: Yersinia pestis Nepal516
[35] = source organism: Salmonella enterica subsp. enterica serovar Typhi
[36] = source organism: Vaccinia virus WR

Sequence: ASGKLITEW
Kd [1, 27]: 13.5 nM | Kd [2, 27]: 4.7 nM

Sequence: GTDSNGMLW
Kd ([3]; source organism: Mycobacterium tuberculosis H37Rv): ≥ 20000 nM | Kd ([4]; source organism: Mycobacterium tuberculosis): 74.8 nM

Sequence: DTDPLPVVF
Kd ([3]; source organism: Mycobacterium tuberculosis str. Haarlem): ≥ 20000 nM | Kd [4, 28]: 236 nM

Sequence: SIYFLRGNH
Kd ([5]; source organism: Entamoeba histolytica HM-1:IMSS): ≥ 20000 nM

Sequence: VSRLFWYGY
Kd [6, 29]: 75.9 nM

Sequence: SMIDNSHLE
Kd [6, 30]: 68.3 nM

Sequence: FASALTALND
Kd [1, 27]: 1570 nM | Kd [2, 27]: 636 nM

Sequence: AQYASTLSV
Kd [7]: 0.162 nM

Sequence: LASSLLKNDI
Kd [1, 27]: 717 nM | Kd [2, 27]: 1280 nM

Sequence: KQIQRVETW
Kd [8]: 8580 nM | Kd [1, 31]: 10.8 nM | Kd [2, 31]: 44.1 nM | Kd [9, 31]: 21.1 nM | Kd [10, 31]: 67.8 nM

Sequence: ATGPVLTLW
Kd [1, 32]: 0.422 nM | Kd [2, 32]: 2.48 nM

Sequence: YMYIMKLHH
Kd ([6]; source organism: Mycobacterium leprae): 36 nM

Sequence: KQIQKVETW
Kd [1, 33]: 4.77 nM | Kd [2, 33]: 460 nM | Kd [9, 33]: 49.5 nM

Sequence: NSYTLLLAY
Kd [11, 34]: 49 nM | Kd [12, 34]: 676 nM

Sequence: FAHDDRYLY
Kd [11, 35]: 0.2 nM | Kd [13]: 54.4 nM | Kd [12, 35]: 200 nM

Sequence: SQFTCSLAV
Kd [7]: 1.47 nM

Sequence: YQTSVSQVA
Kd [7]: 1.45 nM

Sequence: SKYAGINIL
Kd [14]: 16300 nM | Kd [9, 36]: 16100 nM | Kd [7]: 0.271 nM | Kd [10, 36]: 5640 nM | Kd [15]: 546 nM

Sequence: SNENGGPPL
Kd ([16]; source organism: Influenza A virus (A/Cameron/1946(H1N1))): ≥ 20000 nM

Sequence: SSIIKTFVV
Kd [17, 29]: 17.9 nM

Sequence: VMVTSKPLF
Kd [14]: 3540 nM | Kd [9, 36]: 18100 nM | Kd [7]: 8.79 nM | Kd [10, 36]: 15.9 nM | Kd [15]: 15600 nM

Sequence: HQAIISDVL
Kd [18]: ≥ 20000 nM | Kd [19]: ≥ 20000 nM | Kd [20]: ≥ 20000 nM | Kd [21]: ≥ 20000 nM | Kd [3, 28]: ≥ 20000 nM | Kd [22]: ≥ 20000 nM | Kd [23]: ≥ 20000 nM | Kd [4, 28]: ≥ 20000 nM | Kd [24]: ≥ 20000 nM | Kd [16, 28]: 42.4 nM | Kd [25]: ≥ 20000 nM | Kd [26]: ≥ 20000 nM

Sequence: FTAYYLILA
Kd [17, 30]: 9.7 nM

Kd ([5]; source organism: Escherichia coli): 125 nM
Sequence: ATMATRRGY

Kd ([6]; source organism: Escherichia coli HS): 19.9 nM
Sequence: QKMHNHYAY

Sequence: NKVLCISFF
Kd [7]: 41.4 nM
